Assay [1] concerns the target T1, His-tagged human CD47-ECD protein (CD47-His) (human, UniProt Q08722 19-139).
T1 construct: Expressed in HEK293F cells; also called CD47-His antigen
The experiment in a line: BLI (Fortebio), antibody on protein A sensor, CD47-His in solution.
Procedure: A protein A sensor was pre-wetted in PBS for 10 min for later use. The test antibodies were diluted to 10 μg/mL with PBST haying a pH of 6.8 and containing 0.5% BSA (hereinafter referred to as dilution buffer). The PA sensor was immobilized in the antibodies until the signal was about 1.7 nm. […] The dilution buffer, the antigen dilutions at the gradient concentrations, a regeneration buffer (1 M MgCl₂ at pH 8.4) and a neutralization buffer (PBST) were sequentially added to the corresponding columns in a 96-well plate, and the following steps were performed: (1) Baseline: 60 seconds of baseline detection in the dilution buffer; (2) Association: 100 seconds of association in the serial dilutions of the antigen and a sample blanks (dilution buffer); (3) Dissociation: 700 seconds of dissociation in the dilution buffer; (4) Regeneration: 5 seconds of regeneration in the regeneration buffer; (5) Neutralization: 5 seconds of neutralization in the neutralization buffer; and (6) 3 Regeneration-Neutralization cycles.
The data was processed and analyzed using Data Analysis 8.2; and the sample data was fitted after reference (sample blank) signal subtraction to obtain an affinity constant (KD).

Assay [2] deals with T1, His-tagged human CD47-ECD protein …. Kind of assay: competitive ELISA on coated CD47-His (2 µg/mL); blocked ligand SIRPα-Fc-Bio (0.1 µg/mL), HRP-streptavidin, OD450; value is parameter C of the printed 4-parameter fit.

T1 sequence (Q08722 other isoform, or with tags, fused parts or gaps): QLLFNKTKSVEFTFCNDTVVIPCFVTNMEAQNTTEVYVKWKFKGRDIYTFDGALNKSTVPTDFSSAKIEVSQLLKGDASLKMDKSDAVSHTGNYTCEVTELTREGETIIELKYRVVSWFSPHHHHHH

B1: Antibody L12-10 (antibody, human IgG1, kappa)
heavy: not shown
light: EIVLTQSPSSLSASVGDRVTIPCRASLSIGSFLNWYQQRPGEAPKLLIFAASSLRSGVPSRFSGSGSGTDFTLTISSLQPEDFATYYCQQTYTTPYTFGQGTKVEIKRTVAAPSVFIFPPSDEQLKSGTASVVCLLNNFYPREAKVQWKVDNALQSGNSQESVTEQDSKDSTYSLSSTLTLSKADYEKHKVYACEVTHQGLSSPVTKSFNRGEC
notes: Full-length IgG1
Consider B1, for which binding in assay [1] was characterised by a dissociation constant (Kd) of 0.195 nM.

B2: Antibody L12-11 (antibody, human IgG1, kappa)
heavy: not shown
light: DIQMTQSPSSLSASVGDRVTITCRASLSIGSFLNWYQQKPGKAPKLLIYAASSLRSGVPSRFSGSGSGTDFTLTISSLQPEDFATYYCQQTYTTPYTFGQGTKVEIKRTVAAPSVFIFPPSDEQLKSGTASVVCLLNNFYPREAKVQWKVDNALQSGNSQESVTEQDSKDSTYSLSSTLTLSKADYEKHKVYACEVTHQGLSSPVTKSFNRGEC
notes: Full-length IgG1
In assay [1], B2 registered a dissociation constant (Kd) of 0.175 nM. The Kd values of the last two molecules are within 1.5-fold of each other.

B3: Antibody L12-2 (antibody, human IgG1, kappa, V domains shown)
VH: QVQLQESGPGLVKPSETLSLTCTVSGGSLDNYYWSWIRQPPGKGLEWIGYIYYSGNTNYNPSLKSRVTISVDTSKNQFSLKLSSVTAADTAVYYCARGGRFLERYWGQGTLVTVSS
VL: EIVLTQSPSSLSASVGDRVTIPCRASLSIGSFLNWYQQRPGEAPKLLIFAASSLRSGVPSRFSGSGSGTDFTLTISSLQPEDFATYYCQQTYTTPYTFGQGTKVEIKR
notes: Full-length IgG1
In assay [1], B3 gave a Kd of 0.122 nM.

B4: Antibody L12-5 (antibody, human IgG1, kappa)
heavy: not shown
light: EIVLTQSPSSLSASVGDRVTITCRASLSIGSFLNWYQQKPGKAPKLLIYAASSLRSGVPSRFSGSGSGTDFTLTISSLQPEDFATYYCQQTYTTPYTFGQGTKVEIKRTVAAPSVFIFPPSDEQLKSGTASVVCLLNNFYPREAKVQWKVDNALQSGNSQESVTEQDSKDSTYSLSSTLTLSKADYEKHKVYACEVTHQGLSSPVTKSFNRGEC
notes: Full-length IgG1
In assay [1], B4 registered a Kd of 0.138 nM.

B5: Antibody L12-3 (antibody, human IgG1, kappa, V domains shown)
VH: QVQLQESGPGLVKPSETLSLTCTVSGGSLDNYYWSWIRQPPGKGLEWIGYIYYSGNTNYNPSLKSRVTISVDTSKNQFSLKLSSVTAADTAVYYCARGGRFLERYWGQGTLVTVSS
VL: EIVLTQSPSSLSASVGDRVTITCRASLSIGSFLNWYQQKPGKAPKLLIFAASSLRSGVPSRFSGSGSGTDFTLTISSLQPEDFATYYCQQTYTTPYTFGQGTKVEIKR
notes: Full-length IgG1
B5: binding in assay [1] was characterised by a dissociation constant (Kd) of 0.144 nM.

B6: Antibody L12-7 (antibody, human IgG1, kappa)
heavy: not shown
light: EIVLTQSPSSLSASVGDRVTITCRASLSIGSFLNWYQQKPGKAPKLLIFAASSLRSGVPSRFSGSGSGTDFTLTISSLQPEDFATYYCQQTYTTPYTFGQGTKVEIKRTVAAPSVFIFPPSDEQLKSGTASVVCLLNNFYPREAKVQWKVDNALQSGNSQESVTEQDSKDSTYSLSSTLTLSKADYEKHKVYACEVTHQGLSSPVTKSFNRGEC
notes: Full-length IgG1
With B6, the dissociation constant (Kd) in assay [1] came out at 0.149 nM.

B7: Antibody L12-9 (antibody, human IgG1, kappa)
heavy: not shown
light: DIQMTQSPSSLSASVGDRVTITCRASLSIGSFLNWYQQKPGKAPKLLIYAASSLRSGVPSRFSGSGSGTDFTLTISSLQPEDFATYYCQQTYTTPYTFGQGTKVEIKRTVAAPSVFIFPPSDEQLKSGTASVVCLLNNFYPREAKVQWKVDNALQSGNSQESVTEQDSKDSTYSLSSTLTLSKADYEKHKVYACEVTHQGLSSPVTKSFNRGEC
notes: Full-length IgG1
B7: in assay [1], the Kd worked out at 0.124 nM.

B8: Antibody L12-1 (antibody, human IgG1, kappa)
heavy: not shown
light: EIVLTQSPSSLSASVGDRVTITCRASLSIGSFLNWYQQKPGKAPKLLIYAASSLRSGVPSRFSGSGSGTDFTLTISSLQPEDFATYYCQQTYTTPYTFGQGTKVEIKRTVAAPSVFIFPPSDEQLKSGTASVVCLLNNFYPREAKVQWKVDNALQSGNSQESVTEQDSKDSTYSLSSTLTLSKADYEKHKVYACEVTHQGLSSPVTKSFNRGEC
notes: Full-length IgG1
Consider B8, for which the Kd in assay [1] amounted to 0.152 nM.

B9: Antibody L12-4 (antibody, human IgG1, kappa)
heavy: not shown
light: EIVLTQSPSSLSASVGDRVTIPCRASLSIGSFLNWYQQKPGKAPKLLIFAASSLRSGVPSRFSGSGSGTDFTLTISSLQPEDFATYYCQQTYTTPYTFGQGTKVEIKRTVAAPSVFIFPPSDEQLKSGTASVVCLLNNFYPREAKVQWKVDNALQSGNSQESVTEQDSKDSTYSLSSTLTLSKADYEKHKVYACEVTHQGLSSPVTKSFNRGEC
notes: Full-length IgG1
B9 yielded a Kd in assay [1] of 0.107 nM.

B10: Antibody 3 (antibody, human IgG1, kappa, V domains shown)
VH: QVQLQESGPGLVKPSETLSLTCTVSGGSLDGYYWSWIRQPPGKGLEWIGRIYGNSTTNYNPSLKSRVTISVDTSKNQFSLRLRSVTAADTAVYYCARGGRIFAGYWGQGTLVTVSS
VL: DIQMTQSPSSVSASVGDRVTISCRANQAIGTWLAWYQQKPGKAPKLLIYAASTLQSGVPSRFSGSGSGTEFTLTISSLQAEDVAVYYCQQYYTTPLTFGGGTKLEIKR
notes: Full-length IgG1
Take B10: the IC50 in assay [2] is 0.844 µg/mL.

B11: Antibody 6 (antibody, human IgG1, kappa, V domains shown)
VH: QVQLQESGPGLVKPSETLSLTCTVSGGSLNDYYWSWIRQPPGKGLEWIGRIYGNGDTNYNPSLKSRVTISVDTSKNQFSLRLRSVTAADTAVYYCARGGRILAGYWGQGTLVTVSS
VL: DIQMTQSPSSVSASVGDRVTISCRANQAIGTWLAWYQQKPGKAPKLLIYAASTLQSGVPSRFSGSGSGTEFTLTISSLQAEDVAVYYCQQYYTTPLTFGGGTKLEIKR
notes: Full-length IgG1
In the case of B11, the IC50 in assay [2] is 1.1 µg/mL.

B12: Antibody 10 (antibody, human IgG1, kappa, V domains shown)
VH: QVQLQESGPGLVKPSETLSLTCTVSGGSLDNYYWSWIRQPPGKGLEWIGRIYYNGNTNYNPSLKSRVTISVDTSKNQFSLRLRSVTAADTAVYYCARGGRILAGYWGQGTLVTVSS
VL: DIQMTQSPSSVSASVGDRVTISCRANQAIGTWLAWYQQKPGKAPKLLIYAASTLQSGVPSRFSGSGSGTEFTLTISSLQAEDVAVYYCQQYYTTPLTFGGGTKLEIKR
notes: Full-length IgG1
With B12, in assay [2], the IC50 was determined as 1.06 µg/mL.

B13: Antibody 3-6 (antibody, human IgG1, kappa, V domains shown)
VH: QVQLQESGPGLVKPSETLSLTCTVSGGSLDNYYWSWIRQPPGKGLEWIGYIYYSGNTNYNPSLKSRVTISVDTSKNQFSLRLRSVTAADTAVYYCARGGRIFAGYWGQGTLVTVSS
VL: DIQMTQSPSSVSASVGDRVTISCRANQAIGTWLAWYQQKPGKAPKLLIYAASTLQSGVPSRFSGSGSGTEFTLTISSLQAEDVAVYYCQQYYTTPLTFGGGTKLEIKR
notes: Full-length IgG1
The molecule B13 registered an IC50 in assay [2] of 1.12 µg/mL.

B14: Antibody 3-3 (antibody, human IgG1, kappa, V domains shown)
VH: QVQLQESGPGLVKPSETLSLTCTVSGGSLDNYYWSWIRQPPGKGLEWIGYIYYSGNTNYNPSLKSRVTISVDTSKNQFSLRLRSVTAADTAVYYCARGGRIFGGYWGQGTLVTVSS
VL: DIQMTQSPSSVSASVGDRVTISCRANQAIGTWLAWYQQKPGKAPKLLIYAASTLQSGVPSRFSGSGSGTEFTLTISSLQAEDVAVYYCQQYYTTPLTFGGGTKLEIKR
notes: Full-length IgG1
B14: the IC50 in assay [2] worked out at 0.939 µg/mL.

B15: Antibody 11 (antibody, human IgG1, kappa, V domains shown)
VH: QVQLQESGPGLVKPSETLSLTCTVSGGSLDGYYWSWIRQPPGKGLEWIGRIYDGSGTNYNPSLKSRVTISVDTSKNQFSLRLRSVTAADTAVYYCARGGRIFGGYWGQGTLVTVSS
VL: DIQMTQSPSSVSASVGDRVTISCRANQAIGTWLAWYQQKPGKAPKLLIYAASTLQSGVPSRFSGSGSGTEFTLTISSLQAEDVAVYYCQQYYTTPLTFGGGTKLEIKR
notes: Full-length IgG1
Take B15: the IC50 in assay [2] came out at 0.921 µg/mL.

Source of the values: patent US20230303711A1 (BIO THERA SOLUTIONS, published 2023).
